US20170202931

What was measured:
Test in all cases: cell_activity
[1] = test system: ZFN SBS 48641 (mouse albumin intron 1) (synthetic); details: as pair with 31523; mouse liver in vivo, males 4 months (females 45.69; 1 month 46.67 male, 34.05 female); deep sequencing
[2] = test system: ZFN SBS 31523 (mouse albumin intron 1) (synthetic); details: as pair with 48641; mouse liver in vivo, males 4 months (females 45.69; 1 month 46.67 male, 34.05 female); deep sequencing
[3] = test system: ZFN pair SBS 47171 / SBS 47931 (human albumin) (synthetic); details: HepG2 cells with IDS donor, 3 days (62.27 with IDUA donor); MiSeq

## CTGAAGGTGGCAATGGTTCCTCTCTGCT (double strand) [48641 target site]
[1]
  activity: 55.6 % indels

## TTTCCTGTAACGATCGGGAACTGGCATC (double strand) [31523 target site]
[2]
  activity: 55.6 % indels

## human albumin locus ZFN site
[3]
  activity: 59.3 % indels
